Read-outs that look alike come from different tables or passages of the source.
Experiments:
[1] = target: T1, TaHRP1:GST (UniProt A0A3B6H0D8 1-141); experiment: EMSA
T1 sequence: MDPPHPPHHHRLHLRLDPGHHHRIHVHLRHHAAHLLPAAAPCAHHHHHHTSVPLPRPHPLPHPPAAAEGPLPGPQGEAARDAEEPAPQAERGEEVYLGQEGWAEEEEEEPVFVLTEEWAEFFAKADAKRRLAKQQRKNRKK

[2] = target: T1, TaHRP1:GST; experiment: EMSA; remark: listed apart in the source

B1: Probe-DNA (HBS promoter probe) (dsDNA)
DNA 1: AAAACCAAAATAACTAGTTAAAGAAGAATGAAAGAGTTAAATTCCATTTATTTTT
DNA 2: AAAAATAAATGGAATTTAACTCTTTCATTCTTCTTTAACTAGTTATTTTGGTTTT
B1: binds [1].

B2: mProbe-DNA (HBS mutated) (dsDNA)
DNA 1: AAAACCAAAATAACTAGTTAGGCGGCGGTGAAAGAGTTAAATTCCATTTATTTTT
DNA 2: AAAAATAAATGGAATTTAACTCTTTCACCGCCGCCTAACTAGTTATTTTGGTTTT
B2: no binding [2].
